In US12545707 (UNIVERSITY OF DELAWARE, dated 2026):
*: point of attachment. TAMRA = 5(6)-carboxytetramethylrhodamine amide on Lys NZ; Butanoyl(4-maleimido) = O=C1C=CC(=O)N1CCCC(=O)*; NBD = O=[N+]([O-])c1ccc(*)c2nonc12

B1: Peptide 2 (bundle-forming peptide with N-terminal cysteine, SEQ ID NO: 1) (peptide)
peptide: H-CDEEIRRMAEEIRQMAERIQQMAEQIQQEA-NH2
modifications: not fully specified
notes: Four copies associate non-covalently into an antiparallel homotetrameric coiled coil bundle; also called 4459a-C; thiol-containing peptide
B2: Peptide 1 (maleimide-functionalized bundle-forming peptide, SEQ ID NO: 3) (peptide)
peptide: {Butanoyl(4-maleimido)}-DEKIKNMADQIKHMAWMIDRMAEKIDREA-NH2
modifications: not fully specified (residue 1)
notes: Four copies associate non-covalently into an antiparallel homotetrameric coiled coil bundle; also called P622-A6-1; maleimide-containing peptide

Legend:
[1] = target: the molecule itself; experiment: self-association of the peptide into a homotetrameric coiled coil bundle; TEM, cryoTEM and SANS of the linked bundle chains
Experimental: Transmission Electron Microscopy (TEM): Carbon-coated 200 mesh copper grids (CF200-Cu, Electron Microscopy Sciences, Inc.) were freshly treated by glow discharge using a plasma cleaner (PDC-32G, Harrica Plasma, Inc.) at low level for 20 seconds. Then, 4 µL sample solution was dropped on the grid. After 1 min, the remaining liquid was blotted from the edge of the grid using filter paper. The grid was allowed to air-dry for 10 min before TEM observation on FEI TALOS™ F200C microscope. For negative staining, 6 µL aqueous solution of phosphotungstic acid (2 w/v %, pH 6) was applied to the dried grid and incubated for 15-30 seconds. Then the grid was blotted with filter paper. The stained grid was allowed to sit for 10 min before TEM observation.

[2] = target: the molecule itself; experiment: self-association of the dye-labelled peptide into a tetrameric bundle; STORM imaging of the rods
Experimental: With these rigid-rod molecules, the local amino acid sequence along the rods is determined via computational design. With this specified sequence, robust bundle physical assembly, and subsequent covalent polymer formation, one can display desired functionality locally within the polymer chain. High-resolution fluorescence microscopy provides the tool for observation of rigid-rod polymers synthesized with fluorophores attached to specific lysine side chains. Rods with targeted lengths of ~50 nm were first assembled using the same parent peptides as described in FIG. 33 with the short rod termini consisting of bundles displaying thiol functionality (FIG. 33A, more description in Methods). The maleimide-terminated peptides used in the short rod syntheses were functionalized with a desired fluorescent dye (rhodamine; nitrobenzofurazan (NBD); see FIG. 35A). […] After short rod synthesis with desired dye incorporation, separate populations of short red rods and short green rods were mixed together along with individual bundles with maleimide termini and no dye (FIG. 33A and FIG. 35A) in order to link the short, dyed rods together into longer rigid-rod chains. […] The sub-optical wavelength resolution of the STORM technique (stochastic optical reconstruction microscopy) allows clear observation of the ~50 nm long, individual rod segments within final, longer rods. […]

Row | Protein | binding result [1] | binding result [2]
1 | B1 | binds | –
2 | B2 | binds | –
3 | {Butanoyl(4-maleimido)}-DEKIKNMADQIKHMAWMIDRMAEK(TAMRA)IDREA-NH2 (not fully specified (residue 1), also called red dye peptide) [Peptide 4 (SEQ ID NO: 3, maleimide N-terminus, tetramethylrhodamine dye on a lysine side chain)] | – | binds
4 | {Butanoyl(4-maleimido)}-DEKIKNMADQIKHMAWMIDRMAEK(NBD)IDREA-NH2 (not fully specified (residue 1), also called green dye peptide) [Peptide 3 (SEQ ID NO: 3, maleimide N-terminus, nitrobenzofurazan dye on a lysine side chain)] | – | binds
